Assay results published in US20110008351A1 (UNIVERSITE LIBRE DE BRUXELLES, published 2011).

Molecular target: T1, purified human properdin (human, UniProt P27918 28-469)
T1 construct: also called factor P
Assay: ELISA, properdin coated, normalized 293T supernatants, anti-V5 detection

T1 sequence (P27918 28-469 limits assumed): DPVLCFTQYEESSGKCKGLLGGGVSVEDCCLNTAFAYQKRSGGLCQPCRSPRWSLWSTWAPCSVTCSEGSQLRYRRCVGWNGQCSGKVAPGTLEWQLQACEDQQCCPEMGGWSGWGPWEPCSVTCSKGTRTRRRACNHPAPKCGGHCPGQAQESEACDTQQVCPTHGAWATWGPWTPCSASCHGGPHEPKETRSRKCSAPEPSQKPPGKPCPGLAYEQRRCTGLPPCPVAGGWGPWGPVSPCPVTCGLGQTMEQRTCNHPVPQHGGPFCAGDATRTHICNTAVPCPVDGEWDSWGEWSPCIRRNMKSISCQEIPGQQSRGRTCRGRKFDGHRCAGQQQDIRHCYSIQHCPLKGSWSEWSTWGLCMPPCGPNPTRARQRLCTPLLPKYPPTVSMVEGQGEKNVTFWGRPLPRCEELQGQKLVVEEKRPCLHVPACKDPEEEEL

B1: recombinant Rhipicephalus appendiculatus histamine-binding protein 2 (RaHBP2) (other, UniProt O77421 20-190, looked up, not shown: small tags and cut ends)
chain: NQPDWADEAANGAHQDAWKSLKADVENVYYMVKATYKNDPVWGNDFTCVGVMANDVNEDEKSIQAEFLFMNNADTNMQFATEKVTAVKMYGYNRENAFRYETEDGQVFTDVIAYSDDNCDVIYVPGTDGNEEGYELWTTDYDNIPANCLNKFNEYAVGRETRDVFTSACLE
notes: Negative control, supernatant of transfected 293T cells
B1: no binding.
